In EP4786492A1:

Tests used:
[1] = target: monkey DLL3 on CHO-K1-cyno DLL3 cells (cynomolgus monkey); assay: FACS, CHO-K1-cyno DLL3 cells, 0.8 nM antibody
[2] = target: human DLL3 protein expressed on CHO-K1 recombinant cells (human DLL3 extracellular segment fused to EpCAM transmembrane and intracellular regions) (human) (UniProt Q9NYJ7); assay: FACS, CHO-K1 hDLL3 cells, 20 nM antibody
[3] = target: human DLL3 protein expressed on CHO-K1 recombinant cells (human DLL3 extracellular segment fused to EpCAM transmembrane and intracellular regions) (human) (UniProt Q9NYJ7); assay: FACS, CHO-K1 hDLL3 cells, 100 nM antibody
[4] = target: human DLL3 protein expressed on CHO-K1 recombinant cells (human DLL3 extracellular segment fused to EpCAM transmembrane and intracellular regions) (human) (UniProt Q9NYJ7); assay: FACS, CHO-K1 hDLL3 cells, 0.032 nM antibody
[5] = target: human DLL3 protein expressed on CHO-K1 recombinant cells (human DLL3 extracellular segment fused to EpCAM transmembrane and intracellular regions) (human) (UniProt Q9NYJ7); assay: FACS, CHO-K1 hDLL3 cells, 0.16 nM antibody
[6] = target: DLL3 endogenously expressed on NCI-H82 cells (UniProt Q9NYJ7); assay: FACS on NCI-H82 cells; antibody 0.0064 nM
[7] = target: DLL3 endogenously expressed on NCI-H82 cells (UniProt Q9NYJ7); assay: FACS on NCI-H82 cells; antibody 0.8 nM
[8] = target: mouse DLL3 on CHO-K1-mDLL3 cells (mouse) (UniProt O88516); assay: FACS, CHO-K1-mDLL3 cells, 4 nM antibody
[9] = target: mouse DLL3 on CHO-K1-mDLL3 cells (mouse) (UniProt O88516); assay: FACS, CHO-K1-mDLL3 cells, 100 nM antibody
[10] = target: human DLL3 protein expressed on CHO-K1 recombinant cells (human DLL3 extracellular segment fused to EpCAM transmembrane and intracellular regions) (human) (UniProt Q9NYJ7); assay: FACS, CHO-K1 hDLL3 cells, 0.8 nM antibody
[11] = target: human delta-like ligand 3 (DLL3) on SHP77 cells (human) (UniProt Q9NYJ7); assay: FACS on SHP77 cells
[12] = target: human DLL1 protein (Acro, Cat. No. DL1-H52H8) (human) (UniProt O00548); assay: ELISA, coated hDLL1; maximum over 0.1, 1, 10, 100 nM antibody
[13] = target: mouse DLL3 on CHO-K1-mDLL3 cells (mouse) (UniProt O88516); assay: FACS, CHO-K1-mDLL3 cells, 0.0064 nM antibody
[14] = target: mouse DLL3 on CHO-K1-mDLL3 cells (mouse) (UniProt O88516); assay: FACS, CHO-K1-mDLL3 cells, 0.16 nM antibody
[15] = target: monkey DLL3 on CHO-K1-cyno DLL3 cells (cynomolgus monkey); assay: FACS, CHO-K1-cyno DLL3 cells, 0.0064 nM antibody
[16] = target: DLL3 endogenously expressed on NCI-H82 cells (UniProt Q9NYJ7); assay: FACS on NCI-H82 cells; antibody 0.032 nM
[17] = target: DLL3 endogenously expressed on NCI-H82 cells (UniProt Q9NYJ7); assay: FACS on NCI-H82 cells; antibody 0.16 nM
[18] = target: human DLL3 protein expressed on CHO-K1 recombinant cells (human DLL3 extracellular segment fused to EpCAM transmembrane and intracellular regions) (human) (UniProt Q9NYJ7); assay: FACS, CHO-K1 hDLL3 cells, 0.00128 nM antibody
[19] = target: monkey DLL3 on CHO-K1-cyno DLL3 cells (cynomolgus monkey); assay: FACS, CHO-K1-cyno DLL3 cells, 20 nM antibody
[20] = target: DLL3 endogenously expressed on NCI-H82 cells (UniProt Q9NYJ7); assay: FACS on NCI-H82 cells; antibody 20 nM
[21] = target: mouse DLL3 on CHO-K1-mDLL3 cells (mouse) (UniProt O88516); assay: FACS, CHO-K1-mDLL3 cells, 0.00128 nM antibody
[22] = target: monkey DLL3 on CHO-K1-cyno DLL3 cells (cynomolgus monkey); assay: FACS, CHO-K1-cyno DLL3 cells, 0.032 nM antibody
[23] = target: human DLL3 protein (extracellular segment, His tag) (human) (UniProt Q9NYJ7); assay: SPR (Biacore 8K), antibody captured on Protein A chip, DLL3 antigen in solution, 1:1 Langmuir fit
[24] = target: human DLL3 protein expressed on CHO-K1 recombinant cells (human DLL3 extracellular segment fused to EpCAM transmembrane and intracellular regions) (human) (UniProt Q9NYJ7); assay: FACS, CHO-K1 hDLL3 cells, 0.0064 nM antibody
[25] = target: human DLL3 protein expressed on CHO-K1 recombinant cells (human DLL3 extracellular segment fused to EpCAM transmembrane and intracellular regions) (human) (UniProt Q9NYJ7); assay: FACS, CHO-K1 hDLL3 cells, 4 nM antibody
[26] = target: human DLL4 protein (Acro, Cat. No. DL4-H5227) (human) (UniProt Q9NR61); assay: ELISA, coated hDLL4; maximum over 0.1, 1, 10, 100 nM antibody
[27] = target: DLL3 endogenously expressed on NCI-H82 cells (UniProt Q9NYJ7); assay: FACS on NCI-H82 cells; antibody 4 nM
[28] = target: monkey DLL3 on CHO-K1-cyno DLL3 cells (cynomolgus monkey); assay: FACS, CHO-K1-cyno DLL3 cells, 100 nM antibody
[29] = target: DLL3 endogenously expressed on NCI-H82 cells (UniProt Q9NYJ7); assay: FACS on NCI-H82 cells; antibody 0.00128 nM
[30] = target: monkey DLL3 on CHO-K1-cyno DLL3 cells (cynomolgus monkey); assay: FACS, CHO-K1-cyno DLL3 cells, 0.16 nM antibody
[31] = target: monkey DLL3 on CHO-K1-cyno DLL3 cells (cynomolgus monkey); assay: FACS, CHO-K1-cyno DLL3 cells, 4 nM antibody
[32] = target: mouse DLL3 on CHO-K1-mDLL3 cells (mouse) (UniProt O88516); assay: FACS, CHO-K1-mDLL3 cells, 0.032 nM antibody
[33] = target: mouse DLL3 on CHO-K1-mDLL3 cells (mouse) (UniProt O88516); assay: FACS, CHO-K1-mDLL3 cells, 0.8 nM antibody
[34] = target: mouse DLL3 on CHO-K1-mDLL3 cells (mouse) (UniProt O88516); assay: FACS, CHO-K1-mDLL3 cells, 20 nM antibody
[35] = target: DLL3 endogenously expressed on NCI-H82 cells (UniProt Q9NYJ7); assay: FACS on NCI-H82 cells; antibody 100 nM
[36] = target: monkey DLL3 on CHO-K1-cyno DLL3 cells (cynomolgus monkey); assay: FACS, CHO-K1-cyno DLL3 cells, 0.00128 nM antibody

human DLL3 protein (extracellular segment, His tag) (human), sequence (Q9NYJ7 27-492): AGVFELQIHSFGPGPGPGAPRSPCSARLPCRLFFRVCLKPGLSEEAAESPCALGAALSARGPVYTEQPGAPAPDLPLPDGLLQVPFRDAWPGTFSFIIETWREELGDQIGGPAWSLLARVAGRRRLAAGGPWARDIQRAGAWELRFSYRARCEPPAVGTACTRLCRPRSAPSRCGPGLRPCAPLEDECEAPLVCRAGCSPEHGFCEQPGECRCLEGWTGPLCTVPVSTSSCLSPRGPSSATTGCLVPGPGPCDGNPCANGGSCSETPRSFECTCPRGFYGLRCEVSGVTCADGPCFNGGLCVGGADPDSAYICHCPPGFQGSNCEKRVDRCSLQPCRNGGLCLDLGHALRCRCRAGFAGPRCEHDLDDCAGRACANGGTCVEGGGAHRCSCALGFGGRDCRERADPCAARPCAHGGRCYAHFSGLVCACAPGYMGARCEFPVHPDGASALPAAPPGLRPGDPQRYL
mouse DLL3 on CHO-K1-mDLL3 cells (mouse), sequence (O88516 other isoform, or with tags, fused parts or gaps limits assumed): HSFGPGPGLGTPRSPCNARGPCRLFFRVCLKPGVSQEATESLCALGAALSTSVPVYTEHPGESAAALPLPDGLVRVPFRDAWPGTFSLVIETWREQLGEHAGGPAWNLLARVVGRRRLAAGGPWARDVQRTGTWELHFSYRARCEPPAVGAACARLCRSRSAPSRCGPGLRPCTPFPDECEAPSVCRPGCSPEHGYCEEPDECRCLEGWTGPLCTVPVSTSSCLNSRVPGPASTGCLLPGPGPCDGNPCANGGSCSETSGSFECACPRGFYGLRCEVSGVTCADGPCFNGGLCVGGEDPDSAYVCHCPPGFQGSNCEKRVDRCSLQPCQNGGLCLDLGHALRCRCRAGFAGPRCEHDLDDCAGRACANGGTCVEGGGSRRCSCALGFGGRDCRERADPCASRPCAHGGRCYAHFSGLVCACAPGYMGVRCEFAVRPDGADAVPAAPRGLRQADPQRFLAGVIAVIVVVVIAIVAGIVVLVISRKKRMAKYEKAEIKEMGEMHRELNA
monkey DLL3 on CHO-K1-cyno DLL3 cells (cynomolgus monkey), sequence (chain, as listed by the source limits assumed): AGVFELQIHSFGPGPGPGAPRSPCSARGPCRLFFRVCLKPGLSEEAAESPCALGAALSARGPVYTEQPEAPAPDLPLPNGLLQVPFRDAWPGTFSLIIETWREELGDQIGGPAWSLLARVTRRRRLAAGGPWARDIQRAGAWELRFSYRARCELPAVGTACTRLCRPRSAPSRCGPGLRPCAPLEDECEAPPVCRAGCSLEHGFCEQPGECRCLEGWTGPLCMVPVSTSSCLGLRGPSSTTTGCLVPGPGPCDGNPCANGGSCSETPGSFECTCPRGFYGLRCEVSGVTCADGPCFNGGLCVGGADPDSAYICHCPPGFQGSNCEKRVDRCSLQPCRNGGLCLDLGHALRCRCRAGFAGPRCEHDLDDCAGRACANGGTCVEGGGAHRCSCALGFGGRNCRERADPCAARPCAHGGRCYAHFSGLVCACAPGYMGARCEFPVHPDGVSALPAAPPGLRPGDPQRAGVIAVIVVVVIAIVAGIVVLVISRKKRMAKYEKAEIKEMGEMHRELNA
human DLL3 protein expressed on CHO-K1 recombinant cells (human DLL3 extracellular segment fused to EpCAM transmembrane and intracellular regions) (human), sequence (Q9NYJ7 other isoform, or with tags, fused parts or gaps limits assumed): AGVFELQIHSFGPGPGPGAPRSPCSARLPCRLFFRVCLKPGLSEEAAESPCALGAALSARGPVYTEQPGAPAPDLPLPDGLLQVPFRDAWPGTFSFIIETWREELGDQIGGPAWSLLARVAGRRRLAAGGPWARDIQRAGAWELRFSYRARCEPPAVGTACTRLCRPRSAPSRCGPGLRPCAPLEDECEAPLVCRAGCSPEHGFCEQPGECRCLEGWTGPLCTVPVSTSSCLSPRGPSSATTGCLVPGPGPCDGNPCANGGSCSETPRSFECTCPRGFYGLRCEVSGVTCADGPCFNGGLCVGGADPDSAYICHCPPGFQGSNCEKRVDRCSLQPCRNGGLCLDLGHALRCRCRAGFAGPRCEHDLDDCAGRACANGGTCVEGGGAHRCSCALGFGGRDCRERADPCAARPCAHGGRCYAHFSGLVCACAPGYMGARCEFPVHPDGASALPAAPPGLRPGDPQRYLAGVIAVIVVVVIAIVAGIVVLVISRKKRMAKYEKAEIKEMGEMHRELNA
DLL3 endogenously expressed on NCI-H82 cells, sequence (Q9NYJ7 27-618): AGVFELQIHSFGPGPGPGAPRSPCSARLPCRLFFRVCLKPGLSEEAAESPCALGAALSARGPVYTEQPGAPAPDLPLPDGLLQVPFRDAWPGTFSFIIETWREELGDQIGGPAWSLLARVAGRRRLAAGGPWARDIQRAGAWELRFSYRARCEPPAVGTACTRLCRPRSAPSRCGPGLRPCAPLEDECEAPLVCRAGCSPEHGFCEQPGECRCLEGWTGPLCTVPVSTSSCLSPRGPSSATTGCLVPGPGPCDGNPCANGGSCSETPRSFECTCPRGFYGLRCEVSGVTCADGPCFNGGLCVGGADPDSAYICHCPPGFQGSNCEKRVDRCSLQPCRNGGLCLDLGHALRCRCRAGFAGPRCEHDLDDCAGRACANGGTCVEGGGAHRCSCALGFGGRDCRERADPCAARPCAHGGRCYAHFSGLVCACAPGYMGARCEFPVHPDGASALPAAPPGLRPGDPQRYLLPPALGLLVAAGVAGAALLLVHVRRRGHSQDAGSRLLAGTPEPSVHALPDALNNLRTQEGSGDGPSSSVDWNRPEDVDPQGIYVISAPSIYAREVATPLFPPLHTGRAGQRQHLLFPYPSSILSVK
human delta-like ligand 3 (DLL3) on SHP77 cells (human), sequence (Q9NYJ7 27-618, stated change not applied): as the sequence (Q9NYJ7 27-618) above
human DLL4 protein (Acro, Cat. No. DL4-H5227) (human), sequence (Q9NR61 27-524 limits assumed): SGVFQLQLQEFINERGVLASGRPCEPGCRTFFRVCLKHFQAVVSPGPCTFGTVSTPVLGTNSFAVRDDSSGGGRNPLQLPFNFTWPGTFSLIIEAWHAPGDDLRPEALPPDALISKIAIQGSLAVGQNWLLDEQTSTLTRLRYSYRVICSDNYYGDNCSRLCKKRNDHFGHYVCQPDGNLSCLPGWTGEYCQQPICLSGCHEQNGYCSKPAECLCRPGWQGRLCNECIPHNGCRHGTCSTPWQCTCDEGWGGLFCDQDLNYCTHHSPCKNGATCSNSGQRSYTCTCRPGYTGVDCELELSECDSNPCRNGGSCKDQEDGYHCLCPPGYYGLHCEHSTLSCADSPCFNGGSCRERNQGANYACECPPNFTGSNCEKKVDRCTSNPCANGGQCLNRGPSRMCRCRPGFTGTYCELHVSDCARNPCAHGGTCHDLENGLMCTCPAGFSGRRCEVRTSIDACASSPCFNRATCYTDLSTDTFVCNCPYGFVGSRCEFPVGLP
human DLL1 protein (Acro, Cat. No. DL1-H52H8) (human), sequence (O00548 18-540 limits assumed): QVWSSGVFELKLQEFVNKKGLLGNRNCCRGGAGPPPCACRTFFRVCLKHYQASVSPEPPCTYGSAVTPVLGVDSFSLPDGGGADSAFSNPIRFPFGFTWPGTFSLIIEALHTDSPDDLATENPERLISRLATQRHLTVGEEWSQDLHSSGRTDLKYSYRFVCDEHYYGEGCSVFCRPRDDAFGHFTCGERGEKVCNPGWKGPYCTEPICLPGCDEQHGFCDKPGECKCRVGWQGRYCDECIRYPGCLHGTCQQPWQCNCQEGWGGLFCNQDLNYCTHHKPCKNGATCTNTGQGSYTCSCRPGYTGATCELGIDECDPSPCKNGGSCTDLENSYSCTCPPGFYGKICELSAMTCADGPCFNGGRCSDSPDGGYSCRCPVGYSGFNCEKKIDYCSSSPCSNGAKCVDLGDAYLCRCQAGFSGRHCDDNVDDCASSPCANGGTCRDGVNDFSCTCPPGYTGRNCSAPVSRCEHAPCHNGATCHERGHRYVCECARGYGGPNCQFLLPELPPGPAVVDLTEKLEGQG

B1: Hab006VL1VH4-hFc (scFv, part only; not given: VL-VH linker and human IgG1 Fc, V domains shown, not shown: another chain or arm of the molecule; a dimerising Fc or GST; small tags and cut ends)
VL: DIQMTQSPSSLSASVGDRVTITCRATKSISKYLAWYQQKPGKAPKLLIFSGSTLQSGVPSRFSGSGSGTDFTLTISSLQPEDFATYYCQQHHEYPYTFGGGTKVEIK
VH: EVQLVQSGAEVKKPGASVKVSCKASGYTFTSYWMHWVRQAPGQRLEWMGVIDPSDSLANYNQEFKGRVTLTVDTSSSTAYMELSSLRSEDTAVYYCARDSTVVAPMDYWGQGTTVTVSS
[1]
  MFI: 7840 MFI
[2]
  MFI: 13600 MFI
[3]
  MFI: 14300 MFI
[4]
  MFI: 1050 MFI
[5]
  MFI: 3100 MFI
[6]
  MFI: 155
[7]
  MFI: 412
[8]
  MFI: 615 MFI
[9]
  MFI: 589 MFI
[10]
  MFI: 7270 MFI
[11]
  MFI at 0.00128 nM: 208 MFI
  MFI at 0.0064 nM: 275 MFI
  MFI at 0.032 nM: 458 MFI
  MFI at 0.16 nM: 938 MFI
  MFI at 0.8 nM: 1310 MFI
  MFI at 4 nM: 1410 MFI
  MFI at 20 nM: 1600 MFI
  MFI at 100 nM: 1890 MFI
[12]
  Emax of OD450 nm binding value: 0.07 OD450 nm
[13]
  MFI: 187 MFI
[14]
  MFI: 406 MFI
[15]
  MFI: 1380 MFI
[16]
  MFI: 242
[17]
  MFI: 367
[18]
  MFI: 419 MFI
[19]
  MFI: 9060 MFI
[20]
  MFI: 519
[21]
  MFI: 126 MFI
[22]
  MFI: 1730 MFI
[23]
  Kd: 0.568 nM
  koff: 0.000221 s⁻¹
  kon: 389000 M⁻¹ s⁻¹
[24]
  MFI: 716 MFI
[25]
  MFI: 12700 MFI
[26]
  Emax of OD450 nm binding value: 0.15 OD450 nm
[27]
  MFI: 291
[28]
  MFI: 9720 MFI
[29]
  MFI: 126
[30]
  MFI: 5000 MFI
[31]
  MFI: 8590 MFI
[32]
  MFI: 246 MFI
[33]
  MFI: 529 MFI
[34]
  MFI: 627 MFI
[35]
  MFI: 626
[36]
  MFI: 750 MFI

B2: Hab006VL4VH1-hFc (scFv, part only; not given: scFv linker and human IgG1 Fc, V domains shown, not shown: another chain or arm of the molecule; a dimerising Fc or GST; small tags and cut ends)
VL: DIVMTQSPDSLAVSLGERATINCRATKSISKYLAWYQQKPGQTNKLLIFSGSTLQSGVPDRFSGSGSGTDFTLTISSLQAEDVAVYYCQQHHEYPYTFGGGTKVEIK
VH: EVQLVQSGAEVKKPGASVKVSCKASGYTFTSYWMHWVRQAPGQRLEWMGVIDPSDSLANYNQEFKGRVTITVDTSASTAYMELSSLRSEDTAVYYCARDSTVVAPMDYWGQGTTVTVSS
[1]
  MFI: 7500 MFI
[2]
  MFI: 14500 MFI
[3]
  MFI: 15200 MFI
[4]
  MFI: 1130 MFI
[5]
  MFI: 4120 MFI
[6]
  MFI: 157
[7]
  MFI: 434
[8]
  MFI: 485 MFI
[9]
  MFI: 554 MFI
[10]
  MFI: 11300 MFI
[11]
  MFI at 0.00128 nM: 215 MFI
  MFI at 0.0064 nM: 305 MFI
  MFI at 0.032 nM: 554 MFI
  MFI at 0.16 nM: 1060 MFI
  MFI at 0.8 nM: 1410 MFI
  MFI at 4 nM: 1490 MFI
  MFI at 20 nM: 1660 MFI
  MFI at 100 nM: 1900 MFI
[12]
  Emax of OD450 nm binding value: 0.07 OD450 nm
[13]
  MFI: 110 MFI
[14]
  MFI: 278 MFI
[15]
  MFI: 424 MFI
[16]
  MFI: 252
[17]
  MFI: 397
[18]
  MFI: 227 MFI
[19]
  MFI: 9050 MFI
[20]
  MFI: 504
[21]
  MFI: 98 MFI
[22]
  MFI: 1110 MFI
[23]
  Kd: 0.286 nM
  koff: 0.000119 s⁻¹
  kon: 415000 M⁻¹ s⁻¹
[24]
  MFI: 411 MFI
[25]
  MFI: 13600 MFI
[26]
  Emax of OD450 nm binding value: 0.08 OD450 nm
[27]
  MFI: 454
[28]
  MFI: 10500 MFI
[29]
  MFI: 123
[30]
  MFI: 3350 MFI
[31]
  MFI: 8440 MFI
[32]
  MFI: 165 MFI
[33]
  MFI: 404 MFI
[34]
  MFI: 523 MFI
[35]
  MFI: 596
[36]
  MFI: 239 MFI
